What was measured:
[1] = biological target: paired-helical filament tau (PHF-tau) from AD brain (human (endogenous in AD patient cortex)) (UniProt P10636); test: SPR
[2] = biological target: Peptide-7 (tau 195-214, pS199/pS202); test: SPR

Sequence of paired-helical filament tau (PHF-tau) from AD brain (human (endogenous in AD patient cortex)) (P10636 whole entry): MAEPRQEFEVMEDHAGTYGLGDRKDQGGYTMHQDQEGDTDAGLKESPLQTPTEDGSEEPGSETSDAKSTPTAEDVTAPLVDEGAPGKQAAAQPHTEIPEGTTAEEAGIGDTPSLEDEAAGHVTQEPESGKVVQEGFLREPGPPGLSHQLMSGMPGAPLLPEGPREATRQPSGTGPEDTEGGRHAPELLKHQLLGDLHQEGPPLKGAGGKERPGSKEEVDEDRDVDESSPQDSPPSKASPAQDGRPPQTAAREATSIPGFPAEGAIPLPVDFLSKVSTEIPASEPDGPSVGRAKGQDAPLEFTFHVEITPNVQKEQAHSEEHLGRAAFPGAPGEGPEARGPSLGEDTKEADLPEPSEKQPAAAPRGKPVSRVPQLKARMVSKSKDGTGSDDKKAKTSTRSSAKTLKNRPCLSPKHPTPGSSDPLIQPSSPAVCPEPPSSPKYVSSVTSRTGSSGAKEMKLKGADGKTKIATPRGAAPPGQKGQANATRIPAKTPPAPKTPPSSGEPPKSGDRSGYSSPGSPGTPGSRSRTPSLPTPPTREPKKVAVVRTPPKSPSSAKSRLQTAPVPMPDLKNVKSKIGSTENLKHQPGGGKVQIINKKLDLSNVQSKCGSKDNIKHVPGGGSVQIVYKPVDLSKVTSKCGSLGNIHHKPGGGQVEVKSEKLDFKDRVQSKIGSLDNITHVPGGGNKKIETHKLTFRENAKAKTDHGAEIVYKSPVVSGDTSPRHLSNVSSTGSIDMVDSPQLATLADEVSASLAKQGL

Kd [1]: 0.021 µM | Kd [2]: > 1000 µM
Substance: AT8 Fab (from UniProt P01857 1-103; P01834 1-107)
